Measurements: publication PMC6555819, “Comprehensive study of nuclear receptor DNA binding provides a revised framework for understanding receptor specificity”
Changes are numbered by the printed parent chain.

B1: NRC3_random_hg19_47_o1 (dsDNA)
DNA 1: GCGCCTTCAGGAACATGCTATTCTGTCTATGGAGTCGCGATTGACAGCGTAGAATGAAGG
DNA 2: CCTTCATTCTACGCTGTCAATCGCGACTCCATAGACAGAATAGCATGTTCCTGAAGGCGC
B2: NRC3_random_hg19_402_o1 (dsDNA)
DNA 1: GCTGAGGTGCTTCAGAGATGTCCACTCCTGCTGGCTGCGATTGACAGCGTAGAATGAAGG
DNA 2: CCTTCATTCTACGCTGTCAATCGCAGCCAGCAGGAGTGGACATCTCTGAAGCACCTCAGC
B3: NRC3_random_hg19_379_o1 (dsDNA)
DNA 1: GCAGGCTGGCAGATGGTTCAACAGGTGAGTAAAGCAGCGATTGACAGCGTAGAATGAAGG
DNA 2: CCTTCATTCTACGCTGTCAATCGCTGCTTTACTCACCTGTTGAACCATCTGCCAGCCTGC
B4: NRC3_random_hg19_227_o1 (dsDNA)
DNA 1: GCGAAGGAAGGAAGGAAGGAAGGAAGGAAGGAAGGCGCGATTGACAGCGTAGAATGAAGG
DNA 2: CCTTCATTCTACGCTGTCAATCGCGCCTTCCTTCCTTCCTTCCTTCCTTCCTTCCTTCGC
B5: NRC3_random_hg19_233_o1 (dsDNA)
DNA 1: GCTACAAAGTACTGGGATCCTCCCAACAGCCTGCAAGCGATTGACAGCGTAGAATGAAGG
DNA 2: CCTTCATTCTACGCTGTCAATCGCTTGCAGGCTGTTGGGAGGATCCCAGTACTTTGTAGC
B6: NRC3_wobSeed133_DR5_C18T_o1 (dsDNA)
DNA 1: GCCGTCCAAGGTCAATGTTAGGTCAGTGAAAGCATTGCGATTGACAGCGTAGAATGAAGG
DNA 2: CCTTCATTCTACGCTGTCAATCGCAATGCTTTCACTGACCTAACATTGACCTTGGACGGC
B7: NRC3_random_hg19_119_o1 (dsDNA)
DNA 1: GCCCTACCCTCCTCCCTGTCACTCGCCAGTCCCAGCGCGATTGACAGCGTAGAATGAAGG
DNA 2: CCTTCATTCTACGCTGTCAATCGCGCTGGGACTGGCGAGTGACAGGGAGGAGGGTAGGGC
B8: NRC3_random_hg19_80_o1 (dsDNA)
DNA 1: GCCAATACAGCTTTGGCTTCTGCAGAATCTGAGGAAGCGATTGACAGCGTAGAATGAAGG
DNA 2: CCTTCATTCTACGCTGTCAATCGCTTCCTCAGATTCTGCAGAAGCCAAAGCTGTATTGGC
B9: NRC3_wobSeed73_DR3_A18G_o1 (dsDNA)
DNA 1: GCCAAACTAGGTCACAGGGGTCAAAGTCCGTGCGTAGCGATTGACAGCGTAGAATGAAGG
DNA 2: CCTTCATTCTACGCTGTCAATCGCTACGCACGGACTTTGACCCCTGTGACCTAGTTTGGC
B10: NRC3_random_hg19_156_o1 (dsDNA)
DNA 1: GCGCCACCAGGCCTGCCTTACAAGAGCTCCTGAAGAGCGATTGACAGCGTAGAATGAAGG
DNA 2: CCTTCATTCTACGCTGTCAATCGCTCTTCAGGAGCTCTTGTAAGGCAGGCCTGGTGGCGC
B11: NRC3_random_hg19_91_o1 (dsDNA)
DNA 1: GCGACTCAGACACTGCTGGCACCCGACACTGCTCTCGCGATTGACAGCGTAGAATGAAGG
DNA 2: CCTTCATTCTACGCTGTCAATCGCGAGAGCAGTGTCGGGTGCCAGCAGTGTCTGAGTCGC
B12: NRC3_random_hg19_138_o1 (dsDNA)
DNA 1: GCTAGGTTCTCAGAGTAAGAAGTCCATGTTGGTTAGGCGATTGACAGCGTAGAATGAAGG
DNA 2: CCTTCATTCTACGCTGTCAATCGCCTAACCAACATGGACTTCTTACTCTGAGAACCTAGC
B13: NRC3_random_hg19_360_o1 (dsDNA)
DNA 1: GCGCCTGCATAGCCATTCACAGACACTGCCAATACCGCGATTGACAGCGTAGAATGAAGG
DNA 2: CCTTCATTCTACGCTGTCAATCGCGGTATTGGCAGTGTCTGTGAATGGCTATGCAGGCGC
B14: NRC3_random_hg19_192_o1 (dsDNA)
DNA 1: GCGCAGGAAGCCCTCCTCCAGCTTACAGTGGAACTCGCGATTGACAGCGTAGAATGAAGG
DNA 2: CCTTCATTCTACGCTGTCAATCGCGAGTTCCACTGTAAGCTGGAGGAGGGCTTCCTGCGC
B15: NRC3_wobSeed85_DR3_A16T_o1 (dsDNA)
DNA 1: GCCGTCCAAGGTCAGTGAGGTCAGTGAATGCCGAGTGCGATTGACAGCGTAGAATGAAGG
DNA 2: CCTTCATTCTACGCTGTCAATCGCACTCGGCATTCACTGACCTCACTGACCTTGGACGGC
B16: NRC3_wobSeed133_DR5_G26C_o1 (dsDNA)
DNA 1: B6 DNA 1 with T18C, G26C
DNA 2: B6 DNA 2 with C35G, A43G
B17: NRC3_wobSeed111_DR4_T8G_o1 (dsDNA)
DNA 1: GCCGAACGAGGTCAGAACAGGACAGTGAAGGATGATGCGATTGACAGCGTAGAATGAAGG
DNA 2: CCTTCATTCTACGCTGTCAATCGCATCATCCTTCACTGTCCTGTTCTGACCTCGTTCGGC
B18: NRC3_wobSeed73_DR3_T8C_o1 (dsDNA)
DNA 1: B9 DNA 1 with T8C, G18A
DNA 2: B9 DNA 2 with C43T, A53G
B19: NRC3_random_hg19_266_o1 (dsDNA)
DNA 1: GCAATGACAAGGAAGTGTGGAGGCAGAAAGTGCCAAGCGATTGACAGCGTAGAATGAAGG
DNA 2: CCTTCATTCTACGCTGTCAATCGCTTGGCACTTTCTGCCTCCACACTTCCTTGTCATTGC

Target: PPARg:RXRa (Homo sapiens, UniProt P37231;P19793 full;full)
Sequence (P37231 29-505, chain 1 of 2): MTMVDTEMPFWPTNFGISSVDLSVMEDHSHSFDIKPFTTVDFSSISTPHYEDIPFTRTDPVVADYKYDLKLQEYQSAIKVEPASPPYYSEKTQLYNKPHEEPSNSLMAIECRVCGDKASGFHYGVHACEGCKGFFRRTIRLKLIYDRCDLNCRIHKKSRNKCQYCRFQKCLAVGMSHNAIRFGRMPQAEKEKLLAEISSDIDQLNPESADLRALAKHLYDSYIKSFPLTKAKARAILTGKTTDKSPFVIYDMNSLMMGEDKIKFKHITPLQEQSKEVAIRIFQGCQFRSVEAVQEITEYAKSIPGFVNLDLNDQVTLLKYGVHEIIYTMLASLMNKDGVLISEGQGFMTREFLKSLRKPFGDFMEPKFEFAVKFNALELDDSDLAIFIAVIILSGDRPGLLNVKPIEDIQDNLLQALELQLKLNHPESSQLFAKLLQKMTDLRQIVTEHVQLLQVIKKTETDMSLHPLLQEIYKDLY
Sequence (P19793 whole entry, chain 2 of 2): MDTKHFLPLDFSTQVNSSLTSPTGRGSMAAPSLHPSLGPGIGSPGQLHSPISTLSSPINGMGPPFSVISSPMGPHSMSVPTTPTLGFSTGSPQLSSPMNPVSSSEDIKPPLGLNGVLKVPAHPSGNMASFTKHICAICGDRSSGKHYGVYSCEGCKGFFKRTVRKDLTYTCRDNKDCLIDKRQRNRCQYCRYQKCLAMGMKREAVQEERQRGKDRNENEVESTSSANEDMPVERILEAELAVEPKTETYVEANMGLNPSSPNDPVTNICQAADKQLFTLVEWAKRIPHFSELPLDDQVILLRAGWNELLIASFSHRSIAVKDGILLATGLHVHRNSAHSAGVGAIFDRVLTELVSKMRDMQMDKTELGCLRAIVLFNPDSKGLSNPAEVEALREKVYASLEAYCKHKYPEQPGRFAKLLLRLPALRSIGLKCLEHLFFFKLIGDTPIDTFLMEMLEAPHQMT
Assay: no ligand; PBM; 180 nM : 90 nM RXRa; PBS pH 7.4, 2% milk, 0.02% Triton X-100, 1 mM DTT, BSA, 0.4 mg/ml salmon testes DNA
Conditions: tags: His kept;His cleaved; copies: 1;1; label: surface-attached array probe

Binder | binding signal
B1 | 0.27 PBM z-score against 500 random probes
B2 | -0.45 PBM z-score against 500 random probes
B3 | -0.07 PBM z-score against 500 random probes
B4 | -0.31 PBM z-score against 500 random probes
B5 | 0.13 PBM z-score against 500 random probes
B6 | 4 PBM z-score against 500 random probes
B7 | -0.75 PBM z-score against 500 random probes
B8 | -0.24 PBM z-score against 500 random probes
B9 | 10.8 PBM z-score against 500 random probes

Target: THRa:RXRa (Homo sapiens, UniProt P10827;P19793 full;full)
Sequence (P10827 other isoform, or with tags, fused parts or gaps, chain 1 of 2): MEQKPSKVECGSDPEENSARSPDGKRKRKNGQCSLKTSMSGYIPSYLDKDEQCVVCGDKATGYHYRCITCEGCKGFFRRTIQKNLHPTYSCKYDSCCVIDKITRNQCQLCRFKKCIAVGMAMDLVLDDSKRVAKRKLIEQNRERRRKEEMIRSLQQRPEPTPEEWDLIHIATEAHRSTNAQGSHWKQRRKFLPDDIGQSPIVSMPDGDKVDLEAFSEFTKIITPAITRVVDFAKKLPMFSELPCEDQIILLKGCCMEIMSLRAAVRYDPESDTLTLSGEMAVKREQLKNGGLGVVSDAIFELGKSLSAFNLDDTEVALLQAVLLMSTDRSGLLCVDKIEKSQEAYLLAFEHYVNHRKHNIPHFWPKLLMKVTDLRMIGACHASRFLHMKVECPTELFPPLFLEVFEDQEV
Sequence (P19793 whole entry, chain 2 of 2): as the sequence (P19793 whole entry, chain 2 of 2) above
Assay: no ligand; PBM; 90 nM : 90 nM RXRa; PBS pH 7.4, 2% milk, 0.02% Triton X-100, 1 mM DTT, BSA, 0.4 mg/ml salmon testes DNA
Conditions: tags: His kept;His cleaved; copies: 1;1; label: surface-attached array probe

Binder | binding signal
B1 | -0.54 PBM z-score against 500 random probes
B2 | -0.6 PBM z-score against 500 random probes
B3 | -0.17 PBM z-score against 500 random probes
B4 | -0.49 PBM z-score against 500 random probes
B10 | -0.26 PBM z-score against 500 random probes
B11 | -0.34 PBM z-score against 500 random probes
B12 | 0.16 PBM z-score against 500 random probes
B13 | -0.43 PBM z-score against 500 random probes
B14 | -0.77 PBM z-score against 500 random probes
B15 | 4.89 PBM z-score against 500 random probes
B5 | -0.3 PBM z-score against 500 random probes
B16 | 4.78 PBM z-score against 500 random probes
B6 | 5.15 PBM z-score against 500 random probes
B7 | -0.04 PBM z-score against 500 random probes
B17 | 4.78 PBM z-score against 500 random probes
B8 | -1.02 PBM z-score against 500 random probes
B18 | 5.06 PBM z-score against 500 random probes
B9 | 5.07 PBM z-score against 500 random probes
B19 | -0.07 PBM z-score against 500 random probes

Target: LXRb:RXRa (Homo sapiens, UniProt P55055;P19793 full;full)
Sequence (P55055 whole entry, chain 1 of 2): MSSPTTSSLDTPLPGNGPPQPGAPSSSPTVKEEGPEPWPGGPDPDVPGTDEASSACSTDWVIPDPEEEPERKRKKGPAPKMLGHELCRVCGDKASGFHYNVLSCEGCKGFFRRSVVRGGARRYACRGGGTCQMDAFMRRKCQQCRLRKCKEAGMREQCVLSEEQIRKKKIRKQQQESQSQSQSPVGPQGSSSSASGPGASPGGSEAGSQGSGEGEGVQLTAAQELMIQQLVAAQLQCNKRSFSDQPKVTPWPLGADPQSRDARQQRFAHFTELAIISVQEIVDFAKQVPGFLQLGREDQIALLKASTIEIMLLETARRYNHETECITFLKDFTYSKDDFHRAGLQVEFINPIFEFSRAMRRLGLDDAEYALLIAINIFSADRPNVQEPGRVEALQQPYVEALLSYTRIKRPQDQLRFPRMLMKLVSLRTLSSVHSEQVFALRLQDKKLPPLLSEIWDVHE
Sequence (P19793 whole entry, chain 2 of 2): as the sequence (P19793 whole entry, chain 2 of 2) above
Assay: no ligand; PBM; 270 nM : 90 nM RXRa; PBS pH 7.4, 2% milk, 0.02% Triton X-100, 1 mM DTT, BSA, 0.4 mg/ml salmon testes DNA
Conditions: tags: His kept;His cleaved; copies: 1;1; label: surface-attached array probe
Summary of the method: (§1)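 Binding buffer was PBS pH 7.4 with 2% milk, 0.02% Triton X-100, 1 mM DTT, 0.2 mg/mL BSA and 0.4 mg/ml salmon testes DNA. In it, ligand-free nuclear receptor dimers were incubated 1 h on custom Agilent 4×180K protein-binding microarrays carrying double-stranded probes. Antibodies against each partner (one per run) detected binding, and z-scores were calculated against random background probes after regression normalization of scanned fluorescence.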

Binder | binding signal
B12 | 0.28 PBM z-score against 500 random probes
B13 | -0.18 PBM z-score against 500 random probes
B14 | -1.14 PBM z-score against 500 random probes
B18 | 6.76 PBM z-score against 500 random probes
B19 | -0.28 PBM z-score against 500 random probes

Target: RARg:RXRa (Homo sapiens, UniProt P13631;P19793 full;full)
Assay: as above
Conditions: tags: His kept;His cleaved; copies: 1;1; label: surface-attached array probe
Summary of the method: as §1

Binder | binding signal
B9 | 7.8 PBM z-score against 500 random probes

Target: PPARa:RXRa (Homo sapiens, UniProt Q07869;P19793 full;full)
Assay: as above
Conditions: tags: GST kept;His cleaved; copies: 1;1; label: surface-attached array probe
Summary of the method: as §1

Binder | binding signal
B2 | -0.4 PBM z-score against 500 random probes
B13 | -0.57 PBM z-score against 500 random probes
B9 | 7.23 PBM z-score against 500 random probes

Target: RARa:RXRa (Homo sapiens, UniProt P10276;P19793 full;full)
Assay: as above
Conditions: tags: His kept;His cleaved; copies: 1;1; label: surface-attached array probe
Summary of the method: as §1

Binder | binding signal
B10 | -0.57 PBM z-score against 500 random probes
B11 | -0.13 PBM z-score against 500 random probes
B12 | -0.25 PBM z-score against 500 random probes
B13 | -0.36 PBM z-score against 500 random probes
B14 | -1.09 PBM z-score against 500 random probes
B15 | 4.46 PBM z-score against 500 random probes
B16 | 7.16 PBM z-score against 500 random probes
B17 | 3.37 PBM z-score against 500 random probes
B18 | 8.19 PBM z-score against 500 random probes
B19 | -0.53 PBM z-score against 500 random probes

Target: VDR:RXRa (Homo sapiens, UniProt P11473;P19793 full;full)
Assay: as above
Conditions: tags: His kept;His cleaved; copies: 1;1; label: surface-attached array probe
Summary of the method: as §1

Binder | binding signal
B7 | 0.49 PBM z-score against 500 random probes
B18 | 8.47 PBM z-score against 500 random probes

Target: LXRa:RXRa (Homo sapiens, UniProt Q13133;P19793 full;full)
Assay: as above
Conditions: tags: His kept;His cleaved; copies: 1;1; label: surface-attached array probe
Summary of the method: as §1

Binder | binding signal
B3 | -0.53 PBM z-score against 500 random probes

Target: RARb:RXRa (Homo sapiens, UniProt P10826;P19793 full;full)
Assay: as above
Conditions: tags: His kept;His cleaved; copies: 1;1; label: surface-attached array probe
Summary of the method: as §1

Binder | binding signal
B6 | 5.45 PBM z-score against 500 random probes

Target: PXR:RXRa (Homo sapiens, UniProt O75469;P19793 full;full)
Sequence (O75469 whole entry, chain 1 of 2): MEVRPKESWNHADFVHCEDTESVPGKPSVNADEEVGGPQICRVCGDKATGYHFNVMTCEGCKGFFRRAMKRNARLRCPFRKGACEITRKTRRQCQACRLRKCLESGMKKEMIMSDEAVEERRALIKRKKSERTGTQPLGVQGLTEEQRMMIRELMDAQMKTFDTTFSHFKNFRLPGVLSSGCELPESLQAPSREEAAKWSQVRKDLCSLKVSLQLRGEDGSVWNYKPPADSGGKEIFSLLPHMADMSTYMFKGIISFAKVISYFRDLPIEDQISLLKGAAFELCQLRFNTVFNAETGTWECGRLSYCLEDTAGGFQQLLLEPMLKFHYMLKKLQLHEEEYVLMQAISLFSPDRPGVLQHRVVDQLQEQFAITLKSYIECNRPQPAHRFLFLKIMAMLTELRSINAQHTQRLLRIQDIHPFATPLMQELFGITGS
Sequence (P19793 whole entry, chain 2 of 2): as the sequence (P19793 whole entry, chain 2 of 2) above
Assay: as above
Conditions: tags: His kept;His cleaved; copies: 1;1; label: surface-attached array probe
Summary of the method: as §1

Binder | binding signal
B2 | -0.8 PBM z-score against 500 random probes
B4 | -0.88 PBM z-score against 500 random probes
B5 | -0.22 PBM z-score against 500 random probes

Target: FXR:RXRa (Homo sapiens, UniProt Q96RI1;P19793 full;full)
Assay: as above
Conditions: tags: His kept;His cleaved; copies: 1;1; label: surface-attached array probe
Summary of the method: as §1

Binder | binding signal
B2 | -0.38 PBM z-score against 500 random probes
B12 | 0.34 PBM z-score against 500 random probes
B18 | 8 PBM z-score against 500 random probes

Target: RXRa (Homo sapiens, UniProt P19793)
Sequence (P19793 whole entry): as the sequence (P19793 whole entry, chain 2 of 2) above
Assay: no ligand; PBM; 180 nM; PBS pH 7.4, 2% milk, 0.02% Triton X-100, 1 mM DTT, BSA, 0.4 mg/ml salmon testes DNA
Conditions: tags: His cleaved; chain copies: 2; label: surface-attached array probe

Binder | binding signal
B4 | -1.01 PBM z-score against 500 random probes
B13 | -0.49 PBM z-score against 500 random probes
B8 | -0.53 PBM z-score against 500 random probes
